According to patent US20250388672A1 (Ablynx, published 2025):
Changes are numbered by the printed parent chain.

What was measured:
[1] = target: T1, human CD20 (human, UniProt P11836 1-297); assay: cell-based or functional assay
T1 sequence (looked up): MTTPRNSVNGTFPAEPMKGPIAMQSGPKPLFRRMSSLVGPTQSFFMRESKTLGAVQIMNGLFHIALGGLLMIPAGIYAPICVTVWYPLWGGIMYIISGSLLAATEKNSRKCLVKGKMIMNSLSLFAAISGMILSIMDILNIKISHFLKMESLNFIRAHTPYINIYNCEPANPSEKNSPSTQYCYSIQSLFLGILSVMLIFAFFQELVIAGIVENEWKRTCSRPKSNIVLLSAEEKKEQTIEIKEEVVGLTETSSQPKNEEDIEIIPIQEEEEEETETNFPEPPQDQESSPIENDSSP

[2] = target: T1, human CD20; assay: cell-based or functional assay; remark: listed apart in the source
[3] = target: T1, human CD20; assay: flow cytometry on human CD20 positive Ramos cells
[4] = target: T2, human TCR/CD3 complex on purified primary human T cells (human); assay: flow cytometry on primary human T cells
T2 construct: Natural complex on T cells isolated from buffy coats of healthy donors; also called hu T cells; purified primary T cells
T2 sequence (delta, as listed by the source limits assumed, chain 1 of 4): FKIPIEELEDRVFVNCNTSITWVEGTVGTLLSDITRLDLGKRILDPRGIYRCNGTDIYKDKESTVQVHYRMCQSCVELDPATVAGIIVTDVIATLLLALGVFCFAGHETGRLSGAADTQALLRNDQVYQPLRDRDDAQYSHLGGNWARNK
T2 sequence (gamma, as listed by the source limits assumed, chain 2 of 4): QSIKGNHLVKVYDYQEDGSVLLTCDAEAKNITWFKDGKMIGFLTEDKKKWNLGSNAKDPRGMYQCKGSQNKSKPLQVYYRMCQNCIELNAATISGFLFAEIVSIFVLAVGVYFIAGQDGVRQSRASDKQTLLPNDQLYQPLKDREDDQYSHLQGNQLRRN
T2 sequence (epsilon, as listed by the source limits assumed, chain 3 of 4): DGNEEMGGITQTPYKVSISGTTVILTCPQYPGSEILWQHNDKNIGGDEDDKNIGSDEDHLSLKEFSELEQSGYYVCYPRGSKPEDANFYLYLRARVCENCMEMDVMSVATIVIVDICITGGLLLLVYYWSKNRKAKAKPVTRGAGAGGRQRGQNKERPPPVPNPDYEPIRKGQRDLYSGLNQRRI
T2 sequence (zeta, as listed by the source limits assumed, chain 4 of 4): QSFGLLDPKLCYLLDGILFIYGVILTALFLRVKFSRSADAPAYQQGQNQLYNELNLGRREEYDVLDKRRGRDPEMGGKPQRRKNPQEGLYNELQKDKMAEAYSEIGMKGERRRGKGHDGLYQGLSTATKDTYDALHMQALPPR

[5] = target: human HER2 (human, UniProt P04626 23-1255); assay: cell-based or functional assay
[6] = target: T1, human CD20; assay: cell-based or functional assay; remark: listed apart in the source
[7] = target: T1, human CD20; assay: cell-based or functional assay; remark: listed apart in the source
[8] = target: T1, human CD20; assay: cell-based or functional assay; remark: listed apart in the source
[9] = target: T1, human CD20; assay: flow cytometry on Ramos cells, MCF (Mean PE)
[10] = target: T1, human CD20; assay: flow cytometry on Raji cells, MCF (Mean PE)
[11] = target: T2, human TCR/CD3 complex on purified …; assay: flow cytometry on purified primary human T cells
[12] = target: T3, human CD3 expressed on HEK293H cells (human, UniProt P20963 22-164); assay: flow cytometry on HEK293H cells expressing human CD3
T3 construct: also called HEK293H CD3; HEK293H human CD3
T3 sequence (chain, as listed by the source limits assumed, chain 1 of 4): as the sequence (delta, as listed by the source limits assumed, chain 1 of 4) above
T3 sequence (chain, as listed by the source limits assumed, chain 2 of 4): as the sequence (gamma, as listed by the source limits assumed, chain 2 of 4) above
T3 sequence (chain, as listed by the source limits assumed, chain 3 of 4): as the sequence (epsilon, as listed by the source limits assumed, chain 3 of 4) above
T3 sequence (P20963 22-164 limits assumed, chain 4 of 4): as the sequence (zeta, as listed by the source limits assumed, chain 4 of 4) above
Excerpt: The parental HEK293H cell line was included as TCR/CD3 negative cell line.

B1: T017000036 (bispecific antibody)
chain: EVQLVESGGGPVQAGGSLRLSCAASGRTYRGYSMGWFRQAPGKEREFVAAIVWSGGNTYYEDSVKGRFTISRDNAKNTMYLQMTSLKPEDSATYYCAAKIRPYIFKIAGQYDYWGQGTLVTVSSGGGGSGGGGSGGGGSGGGGSGGGGSGGGGSGGGGSEVQLVESGGGLVQPGGSLRLSCTFSGGTFSSYTMGWFRQAPGKEREFVAEVRWGGVTTYSNSLKDRFSISEDSVKNAVYLQMNSLKPEDTAVYYCAAVRQMYMTVVPDYWGQGTLVTVSSGAADYKDHDGDYKDHDIDYKDDDDKGAAHHHHHH
notes: Bispecific Nanobody construct with tags, expressed in Pichia; also called T0170117G03-35GS-20CD019C07-FLAG3-HIS6; CD3xCD20 (cluster A)
% lysis (% dead cells at 500 nM Nanobody minus no Nanobody control), Ramos killing assay, E:T 10:1 [1]: 26% | Average IC50 (M), flow cytometry based primary human T cell mediated Ramos killing assay, E:T 10:1 [1]: 5.5e-09 M | Average IC50 (M), xCELLigence based human T cell mediated CHO-K1 CD20 killing assay, E:T 30:1, 44 h [2]: 1.04e-09 M | EC50 [3]: 21 nM | EC50 [4]: 35 nM

B2: T017000101 (bispecific antibody)
chain: EVQLVESGGGLVQAGGSLRLSCAASGITFSINTMGWYRQAPGKQRELVALISSIGDTYYADSVKGRFTISRDNAKNTVYLQMNSLKPEDTAVYYCKRFRTAAQGTDYWGQGTLVTVSSGGGGSGGGGSGGGGSGGGGSGGGGSGGGGSGGGGSEVQLVESGGGPVQAGGSLRLSCAASGRTYRGYSMGWFRQAPGKEREFVAAIVWSGGNTYYEDSVKGRFTISRDNAKNTMYLQMTSLKPEDSATYYCAAKIRPYIFKIAGQYDYWGQGTLVTVSSGAADYKDHDGDYKDHDIDYKDDDDKGAAHHHHHH
IC50 (M), xCELLigence based cytotoxicity (readout 18 h), MCF-7, E/T 15:1 [5]: 1.1e-10 M | IC50 (M), xCELLigence based cytotoxicity (readout 18 h), SKBR3, E/T 15:1 [5]: 2.6e-11 M

B3: T017000053 (bispecific antibody)
chain: EVQLVESGGGLVQPGGSLRLSCTFSGGTFSSYTMGWFRQAPGKEREFVAEVRWGGVTTYSNSLKDRFSISEDSVKNAVYLQMNSLKPEDTAVYYCAAVRQMYMTVVPDYWGQGTLVTVSSGGGGSGGGGSGGGGSGGGGSGGGGSGGGGSGGGGSEVQLVESGGGLVQPGGSLRLSCAASGDIYKSFDMGWYRQAPGKQRDLVAVIGSRGNNRGRTNYADSVKGRFTISRDGTGNTVYLLMNKLRPEDTAIYYCNTAPLVAGRPWGRGTLVTVSSGAADYKDHDGDYKDHDIDYKDDDDKGAAHHHHHH
notes: Bispecific Nanobody construct with tags, expressed in Pichia; also called 20CD019C07-35GS-T0170060E11-FLAG3-HIS6; CD20xCD3 (cluster B)
% lysis (% dead cells at 500 nM Nanobody minus no Nanobody control), Ramos killing assay, E:T 10:1 [1]: 22% | Average IC50 (M), flow cytometry based primary human T cell mediated Ramos killing assay, E:T 10:1 [1]: 7e-09 M | Average IC50 (M), xCELLigence based human T cell mediated CHO-K1 CD20 killing assay, E:T 30:1, 44 h [2]: 2.81e-10 M | EC50 [3]: 1.8 nM | EC50 (M) of IFN-γ secretion by human T cells (ELISA, 72 h) in the xCELLigence based CHO-K1 human CD20 killing assay [6]: 9.1e-10 M | EC50 (M) (title: IC50), T cell dependent B-cell (Ramos) killing assay [7]: 1.8e-09 M

B4: T017000062 (bispecific antibody)
chain: EVQLVESGGGLVQPGGSLRLSCTFSGGTFSSYTMGWFRQAPGKEREFVAEVRWGGVTTYSNSLKDRFSISEDSVKNAVYLQMNSLKPEDTAVYYCAAVRQMYMTVVPDYWGQGTLVTVSSGGGGSGGGGSGGGGSGGGGSGGGGSGGGGSGGGGSEVQLVESGGGPVQAGGSLRLSCAASGRTYRGYSMGWFRQAPGKEREFVAAIVWSGGNTYYEDSVKGRFTISRDNAKNTMYLQMTSLKPEDSATYYCAAKIRPYIFKIAGQYDYWGQGTLVTVSSGAADYKDHDGDYKDHDIDYKDDDDKGAAHHHHHH
notes: Bispecific Nanobody construct with tags, expressed in Pichia; also called 20CD019C07-35GS-T0170117G03-FLAG3-HIS6; CD20xCD3 (cluster A)
% lysis (% dead cells at 500 nM Nanobody minus no Nanobody control), Ramos killing assay, E:T 10:1 [1]: 22% | Average IC50 (M), flow cytometry based primary human T cell mediated Ramos killing assay, E:T 10:1 [1]: 3.9e-09 M | IC50 (M), flow cytometry based T cell mediated Ramos killing assay, E:T 1 [8]: 2.5e-08 M | IC50 (M), flow cytometry based T cell mediated Ramos killing assay, E:T 2 [8]: 7.1e-09 M | IC50 (M), flow cytometry based T cell mediated Ramos killing assay, E:T 5 [8]: 8.7e-09 M | IC50 (M), flow cytometry based T cell mediated Ramos killing assay, E:T 10 [8]: 7.3e-09 M | Average IC50 (M), xCELLigence based human T cell mediated CHO-K1 CD20 killing assay, E:T 30:1, 44 h [2]: 7.88e-10 M | EC50 [3]: 1.9 nM | EC50 (M) of IFN-γ secretion by human T cells (ELISA, 72 h) in the xCELLigence based CHO-K1 human CD20 killing assay [6]: 6.2e-10 M | EC50 (M) (title: IC50), T cell dependent B-cell (Ramos) killing assay [7]: 6.4e-10 M | EC50 [4]: 89 nM

B5: 20CD019C07 (VHH)
VHH: EVQLVESGGGLVQPGGSLRLSCTFSGGTFSSYTMGWFRQAPGKEREFVAEVRWGGVTTYSNSLKDRFSISEDSVKNAVYLQMNSLKPEDTAVYYCAAVRQMYMTVVPDYWGQGTLVTVSS
notes: also called the anti-CD20 Nanobody; human CD20 targeting Nanobody
EC50 (read off the curve) [9]: ~9 nM | EC50 (read off the curve) [10]: ~20 nM

B6: T0170117G03 (VHH)
VHH: EVQLVESGGGPVQAGGSLRLSCAASGRTYRGYSMGWFRQAPGKEREFVAAIVWSGGNTYYEDSVKGRFTISRDNAKNTMYLQMTSLKPEDSATYYCAAKIRPYIFKIAGQYDYWGQGTQVTVSS
notes: Monovalent anti-CD3 Nanobody, expressed in E. coli TG1 as triple Flag, His6-tagged protein; also called T0170PMP117G03; cluster A representative; not shown: C-terminal triple FLAG and His6 tag
EC50 [11]: 22 nM

B7: T0170075G11 (VHH)
VHH: B6 VHH with G16D, A40V, S54T, G55D, N74I, A75T, Q82H
notes: also called T0170PMP075G11; cluster A; not shown: C-terminal triple FLAG and His6 tag
EC50 [12]: 84 nM

B8: T017000016 (bispecific antibody)
chain: EVQLVESGGGLVQPGGSLRLSCTFSGGTFSSYTMGWFRQAPGKEREFVAEVRWGGVTTYSNSLKDRFSISEDSVKNAVYLQMNSLKPEDTAVYYCAAVRQMYMTVVPDYWGQGTLVTVSSGGGGSGGGGSGGGGSGGGGSGGGGSGGGGSGGGGSEVQLVESGGGSVQAGGSLRLSCAASGRTFSTNPMGWFRQVPGKERELIAAVRWADGNTFYADSVKGRFTISRDNAKKTVYLQMNSLKSEDTATYYCAAGRPWSAYHSPAEYVHWGQGTLVTVSSGAADYKDHDGDYKDHDIDYKDDDDKGAAHHHHHH
notes: Bispecific Nanobody construct with tags, expressed in Pichia; also called 20CD019C07-35GS-T0170033G03-FLAG3-HIS6; CD20xCD3 (cluster C)
% lysis (% dead cells at 500 nM Nanobody minus no Nanobody control), Ramos killing assay, E:T 10:1 [1]: 4% | Average IC50 (M), flow cytometry based primary human T cell mediated Ramos killing assay, E:T 10:1 [1]: 9.2e-09 M | Average IC50 (M), xCELLigence based human T cell mediated CHO-K1 CD20 killing assay, E:T 30:1, 44 h [2]: 6.81e-12 M | EC50 [3]: 1.5 nM

B9: T017000100 (bispecific antibody)
chain: EVQLVESGGGPVQAGGSLRLSCAASGRTYRGYSMGWFRQAPGKEREFVAAIVWSGGNTYYEDSVKGRFTISRDNAKNTMYLQMTSLKPEDSATYYCAAKIRPYIFKIAGQYDYWGQGTLVTVSSGGGGSGGGGSGGGGSGGGGSGGGGSGGGGSGGGGSEVQLVESGGGLVQAGGSLRLSCAASGITFSINTMGWYRQAPGKQRELVALISSIGDTYYADSVKGRFTISRDNAKNTVYLQMNSLKPEDTAVYYCKRFRTAAQGTDYWGQGTLVTVSSGAADYKDHDGDYKDHDIDYKDDDDKGAAHHHHHH
IC50 (M), xCELLigence based cytotoxicity (readout 18 h), MCF-7, E/T 15:1 [5]: 6.9e-11 M | IC50 (M), xCELLigence based cytotoxicity (readout 18 h), SKBR3, E/T 15:1 [5]: 9.5e-12 M
